In US9549967B2, “Regulation of sodium channels by PLUNC proteins” (The University of North Carolina at Chapel Hill, priority 2009, dated 2017):

Target: T1, ENaC (Homo sapiens, UniProt P37088+P51168+P51170)
T1 construct: endogenous in cells; host or cells: primary human bronchial epithelial cultures
T1 sequence (P37088 1-669): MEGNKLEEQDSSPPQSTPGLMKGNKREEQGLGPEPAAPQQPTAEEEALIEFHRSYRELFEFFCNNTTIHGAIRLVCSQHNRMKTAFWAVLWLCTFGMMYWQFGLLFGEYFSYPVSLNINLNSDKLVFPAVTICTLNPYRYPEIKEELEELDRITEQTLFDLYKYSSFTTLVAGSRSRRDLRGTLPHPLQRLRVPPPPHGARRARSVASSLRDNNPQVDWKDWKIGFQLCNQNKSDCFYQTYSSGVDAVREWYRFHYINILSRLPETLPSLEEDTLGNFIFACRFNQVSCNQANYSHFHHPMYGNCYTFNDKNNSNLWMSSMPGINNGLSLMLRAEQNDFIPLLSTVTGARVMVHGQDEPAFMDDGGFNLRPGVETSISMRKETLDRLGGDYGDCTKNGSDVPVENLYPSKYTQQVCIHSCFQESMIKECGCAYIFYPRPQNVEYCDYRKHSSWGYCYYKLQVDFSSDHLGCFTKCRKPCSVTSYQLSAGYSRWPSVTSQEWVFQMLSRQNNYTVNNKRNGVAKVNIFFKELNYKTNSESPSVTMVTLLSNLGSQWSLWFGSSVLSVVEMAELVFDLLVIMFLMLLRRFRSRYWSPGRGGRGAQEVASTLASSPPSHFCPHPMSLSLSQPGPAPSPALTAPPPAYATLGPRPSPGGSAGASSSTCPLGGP
T1 sequence (P51168 1-640): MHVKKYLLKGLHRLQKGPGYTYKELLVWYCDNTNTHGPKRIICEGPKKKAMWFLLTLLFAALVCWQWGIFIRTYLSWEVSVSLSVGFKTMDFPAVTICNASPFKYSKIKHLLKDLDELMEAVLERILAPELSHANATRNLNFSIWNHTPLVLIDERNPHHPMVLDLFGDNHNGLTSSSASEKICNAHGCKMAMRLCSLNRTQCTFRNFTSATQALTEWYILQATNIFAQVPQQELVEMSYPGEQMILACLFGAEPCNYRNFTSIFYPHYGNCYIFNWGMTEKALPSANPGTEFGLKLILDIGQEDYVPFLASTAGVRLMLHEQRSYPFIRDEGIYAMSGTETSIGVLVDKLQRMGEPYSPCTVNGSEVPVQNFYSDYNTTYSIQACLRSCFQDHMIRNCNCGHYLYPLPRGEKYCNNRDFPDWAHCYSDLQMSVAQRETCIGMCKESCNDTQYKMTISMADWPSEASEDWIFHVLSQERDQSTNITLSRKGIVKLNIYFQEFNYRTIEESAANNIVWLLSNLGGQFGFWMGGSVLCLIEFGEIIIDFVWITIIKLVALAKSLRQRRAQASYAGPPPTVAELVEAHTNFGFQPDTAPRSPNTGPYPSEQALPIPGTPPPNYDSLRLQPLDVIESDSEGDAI
T1 sequence (P51170 1-649): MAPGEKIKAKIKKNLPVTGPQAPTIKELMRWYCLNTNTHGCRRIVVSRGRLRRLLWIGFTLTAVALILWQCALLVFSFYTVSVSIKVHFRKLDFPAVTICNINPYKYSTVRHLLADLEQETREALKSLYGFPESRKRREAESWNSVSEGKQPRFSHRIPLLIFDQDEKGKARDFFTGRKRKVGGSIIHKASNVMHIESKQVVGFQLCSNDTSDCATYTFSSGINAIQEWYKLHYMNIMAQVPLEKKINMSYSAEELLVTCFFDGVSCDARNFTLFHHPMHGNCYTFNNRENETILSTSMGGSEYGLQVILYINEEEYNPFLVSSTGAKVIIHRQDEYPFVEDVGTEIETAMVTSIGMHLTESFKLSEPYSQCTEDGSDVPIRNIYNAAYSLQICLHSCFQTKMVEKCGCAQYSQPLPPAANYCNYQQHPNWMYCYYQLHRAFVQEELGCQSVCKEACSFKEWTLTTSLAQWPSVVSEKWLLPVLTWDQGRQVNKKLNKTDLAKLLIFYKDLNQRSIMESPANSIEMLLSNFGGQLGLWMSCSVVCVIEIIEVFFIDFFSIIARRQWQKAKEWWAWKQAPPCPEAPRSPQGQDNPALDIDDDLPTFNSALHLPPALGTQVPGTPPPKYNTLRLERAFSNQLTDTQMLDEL
Experiment: Transepithelial electrical resistance of human bronchial epithelial cultures (EVOM)
Format: cell-based
Conditions: washed cultures; 50 ng/ml SPLUNC1 for 30 min or amiloride; effects not additive
Source text: Tissue procurement and cell culture: Cells were harvested by enzymatic digestion from human bronchial tissue as previously described under a protocol approved by the UNC School of Medicine IRB (Tarran et al., J. Gen. Physiol. 127:591 (2006)). Human excess donor lungs and excised recipient lungs were obtained at the time of lung transplantation from portions of main stem or […] bronchi and cells were harvested by enzymatic digestion. All preparations were maintained at an air-liquid interface in a modified bronchial epithelial medium and used 2-5 weeks after seeding on 12 mm T-Clear inserts (Corning Costar) coated with human placental type VI collagen (Sigma). Phosphate buffered saline (PBS) was used for washing human bronchial epithelial culture mucosal surfaces.
Microelectrode studies. A single-barreled potential difference-sensing electrode was placed in the airway surface liquid by micromanipulator and used in conjunction with a macroelectrode in the serosal solution to measure transepithelial voltage using a voltmeter (World Precision Instruments). […] Transepithelial resistance was routinely measured using the EVOM system (WPI) as previously described (Tarran et al., J. Gen. Physiol. 127:591 (2006)).

B1: SPLUNC1: human SPLUNC1, 256 amino acid secreted PLUNC protein (SEQ ID NO:1); rSPLUNC1 = V5/6His-tagged protein purified from HEK293 media (protein, listed as Homo sapiens)
chain: MFQTGGLIVFYGLLAQTMAQFGGLPVPLDQTLPLNVNPALPLSPTGLAGSLTNALSNGLLSGGLLGILENLPLLDILKPGGGTSGGLLGGLLGKVTSVIPGLNNIIDIKVTDPQLLELGLVQSPDGHRLYVTIPLGIKLQVNTPLVGASLLRLAVKLDITAEILAVRDKQERIHLVLGDCTHSPGSLQISLLDGLGPLPIQGLLDSLTGILNKVLPELVQGNVCPLVNEVLRGLDITLVHDIVNMLIHGLQFVIKV
modifications: V5/6His tag
notes: rSPLUNC1 = V5/6His-tagged protein purified from HEK293 media
increase of the transepithelial electrical resistance: ~33%
